Among the data in publication PMC11931385, “Structural and functional analysis of cancer-associated missense variants in the retinoblastoma protein pocket domain” (The Journal of Biological Chemistry, 2025) are Kd values, retold here.

Assay in all cases: fluorescence polarisation; 37 °C, after the 25 °C reading ramped over 7 min to 37 °C and 2 min incubation; unlabeled Rb^P against 1.5 nM TMR-E2F1^TD or 7.5 nM TMR-E7^LxCxE; 25 mM Tris pH 8.0, 200 mM NaCl, 1 mM DTT, 0.1% Tween-20; apparent Kd
Common to all, as to details: both partners purified
In general terms: In fluorescence polarisation assays a small probe gives low polarisation when free and higher when bound to something large.

One assay has as its target T1, Rb^P S463L (human, UniProt P06400 380-788, S463L).
T1 construct: also called variant 10
T1 sequence (looked up): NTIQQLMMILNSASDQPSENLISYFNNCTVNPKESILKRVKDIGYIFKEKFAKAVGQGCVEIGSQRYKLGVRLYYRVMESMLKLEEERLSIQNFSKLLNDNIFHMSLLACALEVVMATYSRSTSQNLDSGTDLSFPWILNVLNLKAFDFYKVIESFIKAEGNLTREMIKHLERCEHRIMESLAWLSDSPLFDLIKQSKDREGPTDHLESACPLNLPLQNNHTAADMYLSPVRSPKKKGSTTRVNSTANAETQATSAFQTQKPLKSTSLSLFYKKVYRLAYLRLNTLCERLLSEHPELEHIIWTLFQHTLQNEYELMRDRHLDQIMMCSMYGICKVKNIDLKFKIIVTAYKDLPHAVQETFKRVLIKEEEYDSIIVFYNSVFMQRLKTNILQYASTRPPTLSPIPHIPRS

The target of another assay is T2, Rb^P E539D (human, UniProt P06400 380-788, E539D).
T2 construct: also called variant 24
T2 sequence (looked up): T1 sequence (looked up) with L84S, E160D

The next assay addresses T3, Rb^P M546I (human, UniProt P06400 380-788, M546I).
T3 construct: also called variant 25
T3 sequence (looked up): T1 sequence (looked up) with L84S, M167I

A further assay addresses T4, Rb^P K548N (human, UniProt P06400 380-788, K548N).
T4 construct: also called variant 26
T4 sequence (looked up): T1 sequence (looked up) with L84S, K169N

The target of a further assay is T5, Rb^P R621C (human, UniProt P06400 380-788, R621C).
T5 construct: also called variant 41
T5 sequence (looked up): T1 sequence (looked up) with L84S, R242C

Where a chain is given by its changes, count along the chain named. In names and notes the source's numbering stands. No end group written: not given here. TMR = tetramethyl rhodamine dye

B1: TMR-E2F1^TD, peptide of the E2F1 transactivation domain (peptide)
peptide: {TMR}-GEGIRDLFDCDFGDLTPLD
notes: also called E2F^TD; source: synthetic peptide, bought: GenScript
Turning to B1, the Kd in the assay with Rb^P S463L is 0.041 µM; with Rb^P E539D it was 0.104 µM; in the assay with Rb^P M546I it was 0.021 µM; with Rb^P K548N, 0.178 µM; with Rb^P R621C, 0.043 µM.

B2: TMR-E7^LxCxE, LxCxE peptide of the E7 oncoprotein from HPV (peptide)
peptide: DLYCYEQLN
modifications: also: TMR label, position not given here
notes: source: synthetic peptide, bought: GenScript
For the molecule B2, the Kd in the assay with Rb^P S463L was found to be 0.017 µM; with Rb^P E539D it was 0.019 µM; with Rb^P M546I, 0.013 µM; with Rb^P K548N it was 0.015 µM; with Rb^P R621C, 0.03 µM.
